Article PMC10397247
Blank lines part the entries; values can stand above or below the binder they belong to.

How the values were obtained:
4H656-AA = target: T1, 4H656-AA; assay: two-hybrid library CCmax; conditions: mean of both orientations;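 note: natural log of median RNA to DNA barcode read ratio; higher means stronger binding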
T1 chain: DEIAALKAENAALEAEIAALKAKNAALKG

4H189-AA = target: T2, 4H189-AA; assay: two-hybrid library CCmax;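 note: natural log of median RNA to DNA barcode read ratio; higher means stronger binding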
T2 chain: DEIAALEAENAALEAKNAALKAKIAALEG

4H3102-AA = target: T3, 4H3102-AA; assay: two-hybrid library CCmax; conditions: mean of both orientations;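 note: natural log of median RNA to DNA barcode read ratio; higher means stronger binding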
T3 chain: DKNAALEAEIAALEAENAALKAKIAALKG

4H391-AA = target: T4, 4H391-AA; assay: two-hybrid library CCmax; conditions: mean of both orientations;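 note: natural log of median RNA to DNA barcode read ratio; higher means stronger binding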
T4 chain: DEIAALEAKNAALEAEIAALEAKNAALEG

4H3666-AA = target: T5, 4H3666-AA; assay: two-hybrid library CCmax; conditions: mean of both orientations;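 note: natural log of median RNA to DNA barcode read ratio; higher means stronger binding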
T5 chain: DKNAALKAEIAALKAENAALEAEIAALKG

4H2248-AA = target: T6, 4H2248-AA; assay: two-hybrid library CCmax; conditions: mean of both orientations;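 note: natural log of median RNA to DNA barcode read ratio; higher means stronger binding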
T6 chain: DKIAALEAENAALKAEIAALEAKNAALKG

4H3920-AA = target: T7, 4H3920-AA; assay: two-hybrid library CCmax; conditions: mean of both orientations
T7 chain: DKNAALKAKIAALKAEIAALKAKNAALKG

4H2283-AA = target: T8, 4H2283-AA; assay: two-hybrid library CCmax; conditions: mean of both orientations
T8 chain: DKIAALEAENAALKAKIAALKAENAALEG

4H3628-AA = target: T9, 4H3628-AA; assay: two-hybrid library CCmax; conditions: mean of both orientations
T9 chain: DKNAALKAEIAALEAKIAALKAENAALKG

4H3446-AA = target: T10, 4H3446-AA; assay: two-hybrid library CCmax; conditions: mean of both orientations
T10 chain: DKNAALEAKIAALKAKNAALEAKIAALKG

4H478-AA = target: T11, 4H478-AA; assay: two-hybrid library CCmax; conditions: mean of both orientations
T11 chain: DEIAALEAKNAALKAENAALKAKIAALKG

4H3939-AA = target: T12, 4H3939-AA; assay: two-hybrid library CCmax
T12 chain: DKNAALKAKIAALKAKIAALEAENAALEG

4H2713-AA = target: T13, 4H2713-AA; assay: two-hybrid library CCmax; conditions: mean of both orientations
T13 chain: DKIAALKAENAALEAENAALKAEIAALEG

4H3121-AA = target: T14, 4H3121-AA; assay: two-hybrid library CCmax; conditions: mean of both orientations
T14 chain: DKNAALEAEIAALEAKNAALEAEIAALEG

4H428-AA = target: T15, 4H428-AA; assay: two-hybrid library CCmax; conditions: mean of both orientations
T15 chain: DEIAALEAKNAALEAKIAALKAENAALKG

4H2742-AA = target: T16, 4H2742-AA; assay: two-hybrid library CCmax; conditions: mean of both orientations
T16 chain: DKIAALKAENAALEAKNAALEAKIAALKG

4H971-AA = target: T17, 4H971-AA; assay: two-hybrid library CCmax; conditions: mean of both orientations
T17 chain: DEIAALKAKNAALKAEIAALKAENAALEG

4H3029-AA = target: T18, 4H3029-AA; assay: two-hybrid library CCmax; conditions: mean of both orientations
T18 chain: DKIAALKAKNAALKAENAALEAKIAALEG

4H675-AA = target: T19, 4H675-AA; assay: two-hybrid library CCmax; conditions: mean of both orientations
T19 chain: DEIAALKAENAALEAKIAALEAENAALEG

4H3066-AA = target: T20, 4H3066-AA; assay: two-hybrid library CCmax; conditions: mean of both orientations
T20 chain: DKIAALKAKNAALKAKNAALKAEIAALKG

4H2948-AA = target: T21, 4H2948-AA; assay: two-hybrid library CCmax; conditions: mean of both orientations
T21 chain: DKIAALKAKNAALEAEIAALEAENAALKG

4H3709-AA = target: T22, 4H3709-AA; assay: two-hybrid library CCmax; conditions: mean of both orientations
T22 chain: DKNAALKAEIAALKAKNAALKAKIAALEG

4H497-AA = target: T23, 4H497-AA; assay: two-hybrid library CCmax; conditions: mean of both orientations
T23 chain: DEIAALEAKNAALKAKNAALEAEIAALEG

4H3591-AA = target: T24, 4H3591-AA; assay: two-hybrid library CCmax; conditions: mean of both orientations
T24 chain: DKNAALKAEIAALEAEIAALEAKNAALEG

4H2991-AA = target: T25, 4H2991-AA; assay: two-hybrid library CCmax; conditions: mean of both orientations
T25 chain: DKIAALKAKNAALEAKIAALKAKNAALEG

4H3417-AA = target: T26, 4H3417-AA; assay: two-hybrid library CCmax; conditions: mean of both orientations
T26 chain: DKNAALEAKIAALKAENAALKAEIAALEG

4H3613-bH = target: T27, 4H3613-bH; assay: two-hybrid library CCNG1
T27 chain: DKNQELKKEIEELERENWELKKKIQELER

4H906-bH = target: T28, 4H906-bH; assay: two-hybrid library CCNG1
T28 chain: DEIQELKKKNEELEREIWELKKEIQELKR

4H3497-bH = target: T29, 4H3497-bH; assay: two-hybrid library CCNG1
T29 chain: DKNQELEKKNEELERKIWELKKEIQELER

4H3462-bH = target: T30, 4H3462-bH; assay: two-hybrid library CCNG1
T30 chain: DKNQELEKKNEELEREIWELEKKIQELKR

4H626-bH = target: T31, 4H626-bH; assay: two-hybrid library CCNG1
T31 chain: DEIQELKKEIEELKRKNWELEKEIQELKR

4H3926-bH = target: T32, 4H3926-bH; assay: two-hybrid library CCNG1
T32 chain: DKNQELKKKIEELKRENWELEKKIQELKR

4H3298-bH = target: T33, 4H3298-bH; assay: two-hybrid library CCNG1
T33 chain: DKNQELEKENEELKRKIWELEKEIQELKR

4H575-bA = target: T34, 4H575-bA; assay: two-hybrid library CCNG1
T34 chain: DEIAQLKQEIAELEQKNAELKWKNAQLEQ

4H591-bH = target: T35, 4H591-bH; assay: two-hybrid library CCNG1
T35 chain: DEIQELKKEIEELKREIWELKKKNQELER

4H3628-bH = target: T36, 4H3628-bH; assay: two-hybrid library CCNG1
T36 chain: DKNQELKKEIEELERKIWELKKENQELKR

interaction score (4H656-AA): -0.83 | interaction score (4H189-AA): -1.25 | interaction score (4H3102-AA): -1.74 | interaction score (4H391-AA): -1.47 | interaction score (4H3666-AA): -0.914 | interaction score (4H2248-AA): -1.26 | interaction score (4H3920-AA): -1.97 | interaction score (4H2283-AA): -1.71 | interaction score (4H3628-AA): -1.64 | interaction score (4H3446-AA): -1.07 | interaction score (4H478-AA): 1.85 | interaction score (4H3939-AA): -1.4 | interaction score (4H2713-AA): 1.05 | interaction score (4H3121-AA): -1.84 | interaction score (4H428-AA): -1.92 | interaction score (4H2742-AA): 1.11 | interaction score (4H971-AA): -1.52 | interaction score (4H3029-AA): 2.05 | interaction score (4H675-AA): -1.31 | interaction score (4H3066-AA): 1.07 | interaction score (4H2948-AA): -1.02 | interaction score (4H3709-AA): -1.23 | interaction score (4H497-AA): 0.26 | interaction score (4H3591-AA): -0.919 | interaction score (4H2991-AA): -1.76 | interaction score (4H3417-AA): -1.19
Binder: DEIAALEAENAALEAKNAALKAKIAALEG [4H189-AA]

interaction score (4H3613-bH): -1.68 | interaction score (4H906-bH): -0.397 | interaction score (4H3497-bH): -0.424 | interaction score (4H3462-bH): 0.573 | interaction score (4H626-bH): -0.173 | interaction score (4H3926-bH): -0.215 | interaction score (4H3298-bH): 1.66 | interaction score (4H575-bA): -1.29 | interaction score (4H591-bH): -1.21 | interaction score (4H3628-bH): 0.519
Binder: DKNQELEKENEELKRKIWELEKEIQELKR [4H3298-bH]
